Read-outs that look alike come from different tables or passages of the source.
Tests used:
[1] = target: GST-TIPT2 (TATA-binding protein-like factor-interacting protein, isoform 2) (mouse) (UniProt Q6P926)
[2] = target: T1, TBP (human, UniProt P20226 1-339); settings: protein: recombinant
[3] = target: T2, GST-TIPT2 (TIPT isoform 2) (mouse, UniProt Q6P926 1-205); settings: protein: recombinant, tags: N-terminal GST
T2 sequence: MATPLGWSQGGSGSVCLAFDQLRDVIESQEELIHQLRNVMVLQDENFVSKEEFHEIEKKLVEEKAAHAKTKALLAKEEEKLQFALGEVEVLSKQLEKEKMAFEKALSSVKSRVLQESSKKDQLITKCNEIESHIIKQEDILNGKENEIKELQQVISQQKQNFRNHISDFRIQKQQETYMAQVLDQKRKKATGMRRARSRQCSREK

[4] = target: T1, TBP; settings: protein: recombinant; label: radiolabel
[5] = target: T2, GST-TIPT2 (TIPT isoform 2); settings: protein: recombinant; tags: N-terminal GST
[6] = target: T2, GST-TIPT2 (TIPT isoform 2); settings: protein: recombinant; tags: N-terminal GST; label: radiolabel

T1 sequence (P20226 whole entry, canonical isoform): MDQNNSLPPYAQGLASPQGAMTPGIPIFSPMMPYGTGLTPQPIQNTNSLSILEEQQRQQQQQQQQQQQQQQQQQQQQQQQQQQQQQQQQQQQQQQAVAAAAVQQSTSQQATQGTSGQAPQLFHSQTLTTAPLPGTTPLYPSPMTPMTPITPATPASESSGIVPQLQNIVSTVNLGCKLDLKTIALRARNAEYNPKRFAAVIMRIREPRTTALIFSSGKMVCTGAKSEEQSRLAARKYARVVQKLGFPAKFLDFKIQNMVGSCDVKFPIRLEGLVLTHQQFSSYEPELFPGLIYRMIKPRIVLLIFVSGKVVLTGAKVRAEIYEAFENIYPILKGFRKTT

“in vitro translated geminin (from UniProt O88513 1-206) (natural protein)” was tested, and the luciferase reporter in U2OS cells: activation of the AdMLP, co-transfection of geminin with TIPT2 [1] was 11 fold and the luciferase reporter in U2OS cells: activation of the AdMLP, triple transfection of TBP, TIPT2 and geminin [1] was 16 fold.

B1: AdMLP (-40 to -16) (dsDNA)
DNA 1: AAGGGGGGCTATAAAAGGGGGTGGG
DNA 2: CCCACCCCCTTTTATAGCCCCCCTT
B1: binds [2]; binds [3].

B2: AdMLPm6 (dsDNA)
DNA 1: AAGGGGGGCTATAAAATTGGGTGGG
DNA 2: CCCACCCAATTTTATAGCCCCCCTT
B2: binds [3].

B3: AdMLPm1 (dsDNA)
DNA 1: AAGGGGGGCTGTAAAAGGGGGTGGG
DNA 2: CCCACCCCCTTTTACAGCCCCCCTT
B3: binds ([3]; label: radiolabel); no binding [4].

B4: AdMLPm2 (dsDNA)
DNA 1: AATTGGGGCTATAAAAGGGGGTGGG
DNA 2: CCCACCCCCTTTTATAGCCCCAATT
B4: binds [3].

B5: AdMLPm5 (dsDNA)
DNA 1: AAGGGGGGTGATAAAAGGGGGTGGG
DNA 2: CCCACCCCCTTTTATCACCCCCCTT
B5: binds [5].

B6: AdMLPm7 (dsDNA)
DNA 1: AAGGGGGGCTATAAAAGGTTGTGGG
DNA 2: CCCACAACCTTTTATAGCCCCCCTT
B6: binds [3].

B7: AdE4 (dsDNA)
DNA 1: GATCCGGAGTATATATAGGACCTTG
DNA 2: CAAGGTCCTATATATACTCCGGATC
B7: no binding [6]; binds ([2]; label: radiolabel).

B8: AdMLPm8 (dsDNA)
DNA 1: AAGGGGGGCTATAAAAGGGGTGGGG
DNA 2: CCCCACCCCTTTTATAGCCCCCCTT
B8: binds [3].

B9: AdMLPm9 (dsDNA)
DNA 1: AAGGGGGGCTATAAAAGGGGGTTTT
DNA 2: AAAACCCCCTTTTATAGCCCCCCTT
B9: binds [3].

B10: AdMLPm4 (dsDNA)
DNA 1: AAGGGGTTCTATAAAAGGGGGTGGG
DNA 2: CCCACCCCCTTTTATAGAACCCCTT
B10: binds [3].
